In publication PMC6973313 (mAbs, 2020):

Target: T1, Mouse GIPR extracellular domain (residues 19 to 134) (mouse, UniProt Q0P543 19-134)
T1 sequence: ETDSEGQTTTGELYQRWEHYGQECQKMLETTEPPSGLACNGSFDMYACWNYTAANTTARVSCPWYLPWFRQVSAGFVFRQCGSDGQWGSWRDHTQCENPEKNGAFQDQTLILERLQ
Test: crystal structure

B1: Fab of mAb1 (Fab1) (Fab, V domains shown)
VH: DVQLVESGGGLVQPGGSRKLSCAASGFTFSSFGMHWVRQAPEKGLEWVAYISSGSSTIYYADTVKGRFTISRDNPKNTLFLQMTSLRSEDTAMYYCARGKYPTWIAYWGQGTLVTVSA
VL: DIVMTQSPSSLTVTAGEKVTMSCKSSQSLLNSGNQKNYLTWYQQKPGQPPKLLISWASTRDSGVPDRFTGSGSGTDFTLTISSVQAEDLAVYYCQNDYSYPLTFGAGTKLELKR
- binding result: binds
